Paper PMC6548965

Biological target: AP heterodimer (IAP/PLAP) on LoVo cells (human) (UniProt P09923+P05187)
Experiment: flow cytometry
Conditions: 4 C, apparent Kd, PBS pH 7.4 (about 137 mM NaCl) with 5 mM MgCl2, 4.5 g/L glucose, 1 mg/mL BSA, 0.1 mg/mL herring sperm DNA, 30 min at 4 C

Chain of AP heterodimer (IAP/PLAP) on LoVo cells (human) (P09923 20-503, chain 1 of 2): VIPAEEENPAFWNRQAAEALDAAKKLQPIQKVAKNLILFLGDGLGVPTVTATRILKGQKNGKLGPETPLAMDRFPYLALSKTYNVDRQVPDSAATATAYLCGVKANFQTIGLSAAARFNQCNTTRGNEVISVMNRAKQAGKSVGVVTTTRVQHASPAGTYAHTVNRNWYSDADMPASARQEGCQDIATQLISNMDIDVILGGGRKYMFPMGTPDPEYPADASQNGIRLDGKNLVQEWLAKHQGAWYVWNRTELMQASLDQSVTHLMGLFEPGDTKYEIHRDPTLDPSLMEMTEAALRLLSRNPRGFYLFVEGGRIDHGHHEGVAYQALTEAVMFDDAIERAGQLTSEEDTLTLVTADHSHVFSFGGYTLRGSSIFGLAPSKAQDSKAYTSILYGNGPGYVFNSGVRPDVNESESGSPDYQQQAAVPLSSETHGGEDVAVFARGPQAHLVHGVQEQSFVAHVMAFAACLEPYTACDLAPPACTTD
Chain of AP heterodimer (IAP/PLAP) on LoVo cells (human) (P05187 23-506, chain 2 of 2): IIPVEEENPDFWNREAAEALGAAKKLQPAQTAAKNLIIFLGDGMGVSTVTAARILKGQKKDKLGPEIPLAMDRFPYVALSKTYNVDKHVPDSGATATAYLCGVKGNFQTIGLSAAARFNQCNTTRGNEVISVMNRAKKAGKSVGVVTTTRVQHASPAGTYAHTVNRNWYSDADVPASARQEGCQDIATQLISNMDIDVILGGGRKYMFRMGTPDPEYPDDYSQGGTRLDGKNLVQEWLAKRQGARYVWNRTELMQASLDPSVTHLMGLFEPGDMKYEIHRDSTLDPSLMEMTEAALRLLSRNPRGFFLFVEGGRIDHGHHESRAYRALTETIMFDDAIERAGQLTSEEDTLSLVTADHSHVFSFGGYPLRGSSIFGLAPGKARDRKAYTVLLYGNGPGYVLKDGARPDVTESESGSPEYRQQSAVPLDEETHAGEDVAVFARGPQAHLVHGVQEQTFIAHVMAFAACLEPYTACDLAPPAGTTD

Row | Sequence | Kd
1 | CAAGGAATAGGGGTCGGTGTGGGTGGTTATGATTGGCTTCCTTG [BG2] | 2.5 nM
2 | TAAAAAATAGGGGTCGGTGTGGGTGGTTATGATTGGCTTTTTTA [BG4] | 11.5 nM
3 | TAGGGGTCGGTGTGGGTGGTTATGATTGGC [BG2c] | 9.3 nM
